Source: patent US20160368965A1 (IMMATICS BIOTECHNOLOGIES, published 2016)

B1: YLPDIIKDQKA (SEQ ID NO: 161) (peptide)
peptide: YLPDIIKDQKA
B2: ILGTEDLIVEV (SEQ ID NO: 149) (peptide)
peptide: ILGTEDLIVEV
B3: KLFPGFEIETV (SEQ ID NO: 136) (peptide)
peptide: KLFPGFEIETV
B4: TLWYRPPEL (SEQ ID NO: 118) (peptide)
peptide: TLWYRPPEL
B5: MLLEIPYMAA (SEQ ID NO: 157) (peptide)
peptide: MLLEIPYMAA
B6: KISTITPQI (SEQ ID NO: 123) (peptide)
peptide: KISTITPQI
B7: GLIDYDTGI (SEQ ID NO: 16) (peptide)
peptide: GLIDYDTGI
B8: ALWHDAENQTVV (SEQ ID NO: 19) (peptide)
peptide: ALWHDAENQTVV
B9: ALYEKDNTYL (SEQ ID NO: 129) (peptide)
peptide: ALYEKDNTYL
B10: ILLAEGRLVNL (SEQ ID NO: 134) (peptide)
peptide: ILLAEGRLVNL
B11: TTFPRPVTV (SEQ ID NO: 145) (peptide)
peptide: TTFPRPVTV
B12: SLIEKYFSV (SEQ ID NO: 158) (peptide)
peptide: SLIEKYFSV
B13: SMMDPNHFL (SEQ ID NO: 116) (peptide)
peptide: SMMDPNHFL
B14: KLGPEGELL (SEQ ID NO: 137) (peptide)
peptide: KLGPEGELL
B15: YLHNQGIGV (SEQ ID NO: 148) (peptide)
peptide: YLHNQGIGV
B16: NIFPNPEATFV (SEQ ID NO: 138) (peptide)
peptide: NIFPNPEATFV
B17: LLLPPPPCPA (SEQ ID NO: 156) (peptide)
peptide: LLLPPPPCPA
B18: ILASVILNV (SEQ ID NO: 109) (peptide)
peptide: ILASVILNV
B19: TAVALLRLL (SEQ ID NO: 144) (peptide)
peptide: TAVALLRLL
B20: FIDSSNPGL (SEQ ID NO: 13) (peptide)
peptide: FIDSSNPGL
B21: KLDDTYIKA (SEQ ID NO: 135) (peptide)
peptide: KLDDTYIKA
B22: ALLEPEFILKA (SEQ ID NO: 152) (peptide)
peptide: ALLEPEFILKA
B23: FLSEVFHQA (SEQ ID NO: 105) (peptide)
peptide: FLSEVFHQA
B24: VLLDKIKNL (SEQ ID NO: 10) (peptide)
peptide: VLLDKIKNL
B25: ALFVRLLAL (SEQ ID NO: 18) (peptide)
peptide: ALFVRLLAL
B26: FLFGEEPSKL (SEQ ID NO: 130) (peptide)
peptide: FLFGEEPSKL
B27: ALSDLALHFL (SEQ ID NO: 127) (peptide)
peptide: ALSDLALHFL
B28: ALFQPHLINV (SEQ ID NO: 150) (peptide)
peptide: ALFQPHLINV
B29: ILLTGTPAL (SEQ ID NO: 110) (peptide)
peptide: ILLTGTPAL
B30: AQYKFVYQV (SEQ ID NO: 12) (peptide)
peptide: AQYKFVYQV
B31: FVWSGTAEA (SEQ ID NO: 106) (peptide)
peptide: FVWSGTAEA
B32: SLLNPPETLNL (SEQ ID NO: 140) (peptide)
peptide: SLLNPPETLNL
B33: FLQPDLDSL (SEQ ID NO: 104) (peptide)
peptide: FLQPDLDSL
B34: FVDTRTLL (SEQ ID NO: 1) (peptide)
peptide: FVDTRTLL
B35: FLWAGGRASYGV (SEQ ID NO: 132) (peptide)
peptide: FLWAGGRASYGV
B36: ILDDVSLTHL (SEQ ID NO: 133) (peptide)
peptide: ILDDVSLTHL
B37: YAFPKAVSV (SEQ ID NO: 147) (peptide)
peptide: YAFPKAVSV
B38: YLDEDTIYHL (SEQ ID NO: 121) (peptide)
peptide: YLDEDTIYHL
B39: GLIDYDTGIRL (SEQ ID NO: 17) (peptide)
peptide: GLIDYDTGIRL
B40: FLIEEQKIVV (SEQ ID NO: 131) (peptide)
peptide: FLIEEQKIVV
B41: ALLDIIRSL (SEQ ID NO: 151) (peptide)
peptide: ALLDIIRSL
B42: FVYGGPQVQL (SEQ ID NO: 107) (peptide)
peptide: FVYGGPQVQL
B43: LLLAAARLAAA (SEQ ID NO: 111) (peptide)
peptide: LLLAAARLAAA
B44: SLLDLHTKV (SEQ ID NO: 159) (peptide)
peptide: SLLDLHTKV
B45: VLLPDERTISL (SEQ ID NO: 160) (peptide)
peptide: VLLPDERTISL
B46: SLYGYLRGA (SEQ ID NO: 142) (peptide)
peptide: SLYGYLRGA
B47: SLFPHNPQFI (SEQ ID NO: 114) (peptide)
peptide: SLFPHNPQFI
B48: FIIDNPQDLKV (SEQ ID NO: 14) (peptide)
peptide: FIIDNPQDLKV
B49: LMMSEDRISL (SEQ ID NO: 113) (peptide)
peptide: LMMSEDRISL
B50: LLLDPDTAVLKL (SEQ ID NO: 155) (peptide)
peptide: LLLDPDTAVLKL
B51: SIDRNPPQL (SEQ ID NO: 139) (peptide)
peptide: SIDRNPPQL
B52: FILANEHNV (SEQ ID NO: 15) (peptide)
peptide: FILANEHNV
B53: ALYDVRTILL (SEQ ID NO: 128) (peptide)
peptide: ALYDVRTILL
B54: ALPKEDPTAV (SEQ ID NO: 153) (peptide)
peptide: ALPKEDPTAV
B55: ALLGKLDAINV (SEQ ID NO: 125) (peptide)
peptide: ALLGKLDAINV
B56: LLSDVRFVL (SEQ ID NO: 112) (peptide)
peptide: LLSDVRFVL
B57: VLGDDPQLMKV (SEQ ID NO: 119) (peptide)
peptide: VLGDDPQLMKV
B58: ALLSLDPAAV (SEQ ID NO: 126) (peptide)
peptide: ALLSLDPAAV
B59: SVDGVIKEV (SEQ ID NO: 117) (peptide)
peptide: SVDGVIKEV
B60: FGYDGDFYRA (SEQ ID NO: 2) (peptide)
peptide: FGYDGDFYRA
B61: SLMDPNKFLLL (SEQ ID NO: 115) (peptide)
peptide: SLMDPNKFLLL
B62: GLIDIENPNRV (SEQ ID NO: 20) (peptide)
peptide: GLIDIENPNRV
B63: KVADLVLML (SEQ ID NO: 154) (peptide)
peptide: KVADLVLML
B64: VLISGVVHEI (SEQ ID NO: 146) (peptide)
peptide: VLISGVVHEI
B65: MQAPRAALVFA (SEQ ID NO: 122) (peptide)
peptide: MQAPRAALVFA
B66: ALFEESGLIRI (SEQ ID NO: 124) (peptide)
peptide: ALFEESGLIRI
B67: ALYYNPHLL (SEQ ID NO: 11) (peptide)
peptide: ALYYNPHLL

Target: T1, HLA-A*02:01 (human)
T1 construct: the tested peptide takes its place; also called peptide-receptive MHC molecules; MHC class I
Test: UV-ligand exchange, anti-β2m ELISA; grade of peptide exchange yield
Description: Candidate peptides for T cell based therapies according to the present invention were further tested for their MHC binding capacity (affinity). The individual peptide-MHC complexes were produced by UV-ligand exchange, where a UV-sensitive peptide is cleaved upon UV-irradiation, and exchanged with the peptide of interest as analyzed. Only peptide candidates that can effectively bind and stabilize the peptide-receptive MHC molecules prevent dissociation of the MHC complexes. To determine the yield of the exchange reaction, an ELISA was performed based on the detection of the light chain (β2m) of stabilized MHC complexes. The assay was performed as generally described in Rodenko et al. (Rodenko et al., 2006).
96 well MAXISorp plates (NUNC) were coated over night with 2 ug/ml streptavidin in PBS at room temperature, washed 4× and blocked for 1h at 37° C. in 2% BSA containing blocking buffer. Refolded HLA-A*02:01/MLA-001 monomers served as standards, covering the range of 15-500 ng/ml. Peptide-MHC monomers of the UV-exchange reaction were diluted 100 fold in blocking buffer. Samples were incubated for 1 h at 37° C., washed four times, incubated with 2 ug/ml HRP conjugated anti-β2m for 1h at 37° C., washed again and detected with TMB solution that is stopped with […]. Absorption was measured at 450 nm. Candidate peptides that show a high exchange yield (preferably higher than 50%, most preferred higher than 75%) are generally preferred for a generation and production of antibodies or fragments thereof, and/or T cell receptors or fragments thereof, as they show sufficient avidity to the MHC molecules and prevent dissociation of the MHC complexes.

| Binder | peptide exchange yield |
| --- | --- |
| B1 | 50 to 75% |
| B2 | 50 to 75% |
| B3 | ≥ 75% |
| B4 | 50 to 75% |
| B5 | 50 to 75% |
| B6 | 20 to 50% |
| B7 | 50 to 75% |
| B8 | 50 to 75% |
| B9 | 50 to 75% |
| B10 | 50 to 75% |
| B11 | 50 to 75% |
| B12 | ≥ 75% |
| B13 | ≥ 75% |
| B14 | 50 to 75% |
| B15 | 20 to 50% |
| B16 | 50 to 75% |
| B17 | 50 to 75% |
| B18 | ≥ 75% |
| B19 | 20 to 50% |
| B20 | 20 to 50% |
| B21 | 50 to 75% |
| B22 | ≥ 75% |
| B23 | 50 to 75% |

| Binder | peptide exchange yield |
| --- | --- |
| B24 | 20 to 50% |
| B25 | 20 to 50% |
| B26 | 50 to 75% |
| B27 | ≥ 75% |
| B28 | ≥ 75% |
| B29 | 50 to 75% |
| B30 | 50 to 75% |
| B31 | 50 to 75% |
| B32 | 50 to 75% |
| B33 | 50 to 75% |
| B34 | 20 to 50% |
| B35 | 50 to 75% |
| B36 | 20 to 50% |
| B37 | 20 to 50% |
| B38 | 20 to 50% |
| B39 | 50 to 75% |
| B40 | 50 to 75% |
| B41 | ≥ 75% |
| B42 | 50 to 75% |
| B43 | 50 to 75% |
| B44 | 50 to 75% |
| B45 | ≥ 75% |
| B46 | 50 to 75% |

| Binder | peptide exchange yield |
| --- | --- |
| B47 | 50 to 75% |
| B48 | 50 to 75% |
| B49 | 50 to 75% |
| B50 | 50 to 75% |
| B51 | 50 to 75% |
| B52 | 50 to 75% |
| B53 | 50 to 75% |
| B54 | 50 to 75% |
| B55 | 50 to 75% |
| B56 | 50 to 75% |
| B57 | 50 to 75% |
| B58 | ≥ 75% |
| B59 | 50 to 75% |
| B60 | 50 to 75% |
| B61 | 50 to 75% |
| B62 | 50 to 75% |
| B63 | 50 to 75% |
| B64 | 50 to 75% |
| B65 | ≥ 75% |
| B66 | 50 to 75% |
| B67 | 20 to 50% |
